Laboratory results published in patent US20130224224A1 (Boehringer Ingelheim, published 2013).
Numbering of substitutions follows the chain as printed. Names and notes keep the numbering of the source.

T1: human CX3CR1 (human, UniProt P49238 1-355)
T1 construct: overexpressed on CHO, BA/F3 or HEK293T cells; also called huCX3CR1; hCX3CR1
T1 sequence: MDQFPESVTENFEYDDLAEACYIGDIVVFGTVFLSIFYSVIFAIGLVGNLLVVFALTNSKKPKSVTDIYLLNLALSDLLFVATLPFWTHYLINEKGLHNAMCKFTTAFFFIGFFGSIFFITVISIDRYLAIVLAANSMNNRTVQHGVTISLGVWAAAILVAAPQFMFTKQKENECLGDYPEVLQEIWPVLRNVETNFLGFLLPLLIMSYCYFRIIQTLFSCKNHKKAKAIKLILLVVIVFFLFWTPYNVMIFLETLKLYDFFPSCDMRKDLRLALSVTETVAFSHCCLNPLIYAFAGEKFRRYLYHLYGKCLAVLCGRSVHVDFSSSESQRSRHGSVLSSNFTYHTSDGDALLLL

B1: C100CX3CR1BII043 (VHH)
VHH: EVQLVESGGGSVQPGESLRLSCAASGSIFSSNAMAWYRQAPGKRRDLVAAINSVGVTKYADSVKGRFTISRDNSKNTVYLQMNSLRPEDTAVYYCTSDPRRGWDTRYWGQGTLVTVSS
notes: 66B02 with A14P, A74S, K83R, Q108L; not shown: myc/His tag
B2: C100CX3CR1BII061 (VHH)
VHH: B1 VHH with S11L, E16G
notes: 66B02 with S11L, A14P, E16G, A74S, K83R, Q108L; not shown: myc/His tag
B3: C100CX3CR1BII057 (VHH)
VHH: B1 VHH with S11L, E16G, D46E
notes: 66B02 with S11L, A14P, E16G, D46E, A74S, K83R, Q108L; not shown: myc/His tag
B4: C100CX3CR1BII060 (VHH)
VHH: B1 VHH with S11L, E16G, R44Q, D46E
notes: 66B02 with S11L, A14P, E16G, R44Q, D46E, A74S, K83R, Q108L; not shown: myc/His tag
B5: C100CX3CR1BII048 (VHH)
VHH: B1 VHH with E16G
notes: 66B02 with A14P, E16G, A74S, K83R, Q108L; not shown: myc/His tag
B6: C100CX3CR1BII056 (VHH)
VHH: B1 VHH with S11L, E16G, R44Q
notes: 66B02 with S11L, A14P, E16G, R44Q, A74S, K83R, Q108L; not shown: myc/His tag
B7: C100CX3CR1BII050 (VHH)
VHH: B1 VHH with D46E
notes: 66B02 with A14P, D46E, A74S, K83R, Q108L; not shown: myc/His tag
B8: C100CX3CR1BII047 (VHH)
VHH: B1 VHH with S11L
notes: 66B02 with S11L, A14P, A74S, K83R, Q108L; not shown: myc/His tag
B9: C100CX3CR1BII045 (VHH)
VHH: B1 VHH with E1D
notes: 66B02 with E1D, A14P, A74S, K83R, Q108L; not shown: myc/His tag
B10: C100CX3CR1BII049 (VHH)
VHH: B1 VHH with R44Q
notes: 66B02 with A14P, R44Q, A74S, K83R, Q108L; not shown: myc/His tag
B11: CX3CR1BII66B02 (S53P, Q108L) (VHH, name in Kabat numbering)
VHH: B1 VHH with P14A, S53P, S74A, R86K
notes: Kabat numbering
B12: CX3CR1BII66B02 (S53G, Q108L) (VHH, name in Kabat numbering)
VHH: B1 VHH with P14A, S53G, S74A, R86K
notes: Kabat numbering
B13: CX3CR1BII66B02 (N52S, Q108L) (VHH, name in Kabat numbering)
VHH: B1 VHH with P14A, N52S, S74A, R86K
B14: CX3CR1BII66B02 (N52Q, Q108L) (VHH, name in Kabat numbering)
VHH: B1 VHH with P14A, N52Q, S74A, R86K
notes: Kabat numbering
B15: CX3CR1BII66B02 (S53T, Q108L) (VHH, name in Kabat numbering)
VHH: B1 VHH with P14A, S53T, S74A, R86K
notes: Kabat numbering
B16: CX3CR1BII66B02 (N52G, Q108L) (VHH, name in Kabat numbering)
VHH: B1 VHH with P14A, N52G, S74A, R86K
notes: Kabat numbering
B17: CX3CR1BII66B02 (N52T, Q108L) (VHH, name in Kabat numbering)
VHH: B1 VHH with P14A, N52T, S74A, R86K
notes: Kabat numbering
B18: CX3CR1BIIPMP61C9 (VHH)
VHH: EVQLVKSGGGSVQAGESLRLSCAASGSIFSSNAMAWYRQALGKQRDLVALIDSAGITKYADSVKGRFTISRDNAKNTVYLQMNRLKPEDTAVYYCASDARRGWNTKYWGQGTLVTVSS
notes: tested as periplasmic extract; not shown: C-terminal c-myc and His6 tags
B19: CX3CR1BIIPMP61F10 (VHH)
VHH: KVQLVESGGGSVQAGESLRLSCAASGTIFSSNAMAWYRQAPGKQRDLVAGINSVDITKYADSVKGRFTISRDNAKNTVYLQMNSLKPEDTAVYYCTSDPRRGWNTRYWGQGTQVTVSS
notes: as for B18
B20: CX3CR1BIIPMP54A5 (VHH)
VHH: B19 VHH with K1E, T27S, D55G, N104D, Q113L
notes: as for B18
B21: CX3CR1BIIPMP54A3 (VHH)
VHH: B19 VHH with K1E, T27S, D55G, N104D
notes: as for B18
B22: CX3CR1BIIPMP61D5 (VHH)
VHH: B19 VHH with T27S, P41F, G50L, D55G, N104D
notes: as for B18
B23: CX3CR1BIIPMP54B1 (VHH)
VHH: B19 VHH with K1E, T27S, D55G, V78A, N104D
notes: as for B18
B24: CX3CR1BIIPMP54F6 (VHH)
VHH: B19 VHH with T27S, G50A, D55G, N104D, Q113L
notes: as for B18
B25: CX3CR1BIIPMP54B2 (VHH)
VHH: B19 VHH with K1E, Q113L
notes: as for B18
B26: CX3CR1BIIPMP54H4 (VHH)
VHH: B1 VHH with P14A, R44Q, A50V, V56I, R71G, S74A, R86K, P99A
notes: as for B18
B27: CX3CR1BIIPMP61F4 (VHH)
VHH: B1 VHH with P14A, E16A, R44Q, A50V, S53T, V56I, S74A, R86K, P99A
notes: as for B18
B28: CX3CR1BIIPMP61G2 (VHH)
VHH: B19 VHH with K1E, E6K, T27S, G50L, D55G, N104D
notes: as for B18
B29: CX3CR1BIIPMP61D1 (VHH)
VHH: B19 VHH with K1E, T27S, P41F, G50L, D55G, N104D
notes: as for B18
B30: CX3CR1BIIPMP54B5 (VHH)
VHH: B19 VHH with K1E, T27S, D55G, V78A, N104D, Q113L
notes: tested as periplasmic extract; also called CX3CR1BII54B5; not shown: C-terminal c-myc and His6 tags
B31: CX3CR1BIIPMP61A11 (VHH)
VHH: B19 VHH with K1E, G8R, T27S, G50V, D55G, R71G, P99A, N104D
notes: as for B18

What follows are binders tested against T1, human CX3CR1 (assay: fractalkine competition FACS).

| Binder | % block [%] | IC50 [nM] |
| --- | --- | --- |
| B1 | 101 | 2.2 |
| B2 | 98.9 | 1.4 |
| B3 | 99.4 | 14 |
| B4 | 98.4 | 190 |
| B5 | 101 | 1.9 |
| B6 | 101 | 16 |
| B7 | 101 | 17 |
| B8 | 101 | 2.3 |
| B9 | 101 | 2.2 |
| B10 | 101 | 18 |

Biological target: T1, human CX3CR1
Test: fractalkine competition FACS
Remark: another data set of the same source

| Binder | % block [%] | IC50 [nM] |
| --- | --- | --- |
| B11 | 98.2 | 0.8 |
| B12 | 98.3 | 1.2 |
| B13 | 98 | 1.7 |
| B14 | 97.9 | 2.1 |
| B15 | 98.1 | 1.3 |
| B16 | 98 | 1.1 |
| B17 | 98 | 2.8 |

What follows are binders tested against T1, human CX3CR1 (assay: periplasmic extract, A647-fractalkine competition FACS, CHO-huCX3CR1).
Excerpt: Periplasmic extracts were screened in a human CX3CR1/human Fractalkine FACS competition assay to assess the blocking capacity of the expressed VHHs. Human CX3CR1 was presented on CHO cells overexpressing CX3CR1. Both a setup using cells harvested from an actively growing culture and a setup using frozen cells was used. As a detection reagent labeled fractalkine was used (R&D Systems, Minneapolis, Minn., USA) labeled with alexa647 (A647-Fractalkine) at a degree of labeling of 1. To setup the assay, first a titration series of the labeled fractalkine was performed on the CHO-huCX3CR1 cells in order to determine the EC50 value for binding. Initially screening was performed at a higher concentration of fractalkine (3 nM) to increase the assay robustness. To increase the sensitivity of the screening to a maximum, the EC30 concentration (1 nM) was chosen for subsequent screening. In brief 50 μl of periplasmic extract was added to 6 nM labeled fractalkine (50 μ;) and 200 000 CHO-huCX3CR1 cells. After one hour incubation at 4 C, cells were washed three times before read out was performed on a FACS Array (Becton Dickinson). First a gate was set on the intact cells as determined from the scatter profile. Next, dead cells were gated out by their fluorescence profile from the PI stain (Sigma, St Louis, US). The fluorescence profile from the alexa647 label was determined for each sample and used for calculation of blocking capacity. As controls, conditions were taken along where there was no VHH present in the peri extract or a known irrelevant VHH and samples were included where excess cold fractalkine was included. For each sample the percentage block was determined using the control samples to determine the assay window.

| Binder | % block [%] |
| --- | --- |
| B18 | 69.4 |
| B19 | 73.5 |
| B20 | 92.5 |
| B21 | 90.8 |
| B22 | 94.9 |
| B23 | 92.1 |
| B24 | 96.6 |
| B25 | 65.3 |
| B26 | 96 |
| B27 | 94.4 |
| B28 | 82 |
| B29 | 68.4 |
| B30 | 92.6 |
| B31 | 78 |
